Square brackets hold non-standard residues; d marks the D form. Ends that are not written are not given here. * marks the point of attachment. pY = N[C@@H](Cc1ccc(OP(=O)(O)O)cc1)C(=O)O; Dansyl = CN(C)c1cccc2c(S(=O)(=O)*)cccc12
Target: T1, SH2 domain of Crkl protein (residues 1-111), wild type (UniProt P46109 1-111)
T1 construct: Crkl adaptor protein, SH2 domain, residues 1-111; Subcloned in pET28b+; all experiments were done on the N-terminally His-tagged protein; also called Crkl-SH2; Crkl SH2 domain; source: E. coli BL21 (DE3), purified (HisTrap nickel column, desalting); not shown: His tag, N-terminal, kept
T1 sequence (P46109 1-111): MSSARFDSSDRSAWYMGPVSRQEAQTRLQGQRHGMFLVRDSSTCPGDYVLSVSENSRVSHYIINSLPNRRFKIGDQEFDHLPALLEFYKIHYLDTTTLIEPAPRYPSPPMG
Assay: stopped-flow fluorescence kinetics (FRET); dansyl-Pax112-123 constant at 2 μM mixed with Crkl-SH2 2 to 10 μM (pseudo-first-order, kon); koff by displacement of the preincubated 2 µM complex with excess non-dansylated Pax112-123 (30 μM); 283 K; 50 mM TrisHCl pH 9.0, 0.5 M NaCl
Settings: both partners purified

Kd: 2.5 ± 0.2 µM | koff: 36.1 ± 0.6 s⁻¹ | kon: 1.41e+07 ± 900000 M⁻¹ s⁻¹
B1: dansylated Pax_(112–123) peptide (Dans-GEEEHV-pY-SFPNK) (peptide)
peptide: Dansyl-GEEEHV[pY]SFPNK
notes: The dansyl group is the FRET acceptor of Trp14 of the SH2 domain; source: synthetic peptide, bought: GenScript
